Sequences and labels used below:
B1: Ribosome assembly protein METTL17, mitochondrial (Homo sapiens), Q9H7H0 (parent)
chain: MAAALKCLLTLGRWCPGLGVAPQARALAALVPGVTQVDNKSGFLQKRPHRQHPGILKLPHVRLPQALANGAQLLLLGSAGPTMENQVQTLTSYLWSRHLPVEPEELQRRARHLEKKFLENPDLSQTEEKLRGAVLHALRKTTYHWQELSYTEGLSLVYMAARLDGGFAAVSRAFHEIRARNPAFQPQTLMDFGSGTGSVTWAAHSIWGQSLREYMCVDRSAAMLVLAEKLLKGGSESGEPYIPGVFFRQFLPVSPKVQFDVVVSAFSLSELPSKADRTEVVQTLWRKTGHFLVLVENGTKAGHSLLMDARDLVLKGKEKSPLDPRPGFVFAPCPHELPCPQLTNLACSFSQAYHPIPFSWNKKPKEEKFSMVILARGSPEEAHRWPRITQPVLKRPRHVHCHLCCPDGHMQHAVLTARRHGRDLYRCARVSSWGDLLPVLTPSAFPPSTAQDPSES
partner: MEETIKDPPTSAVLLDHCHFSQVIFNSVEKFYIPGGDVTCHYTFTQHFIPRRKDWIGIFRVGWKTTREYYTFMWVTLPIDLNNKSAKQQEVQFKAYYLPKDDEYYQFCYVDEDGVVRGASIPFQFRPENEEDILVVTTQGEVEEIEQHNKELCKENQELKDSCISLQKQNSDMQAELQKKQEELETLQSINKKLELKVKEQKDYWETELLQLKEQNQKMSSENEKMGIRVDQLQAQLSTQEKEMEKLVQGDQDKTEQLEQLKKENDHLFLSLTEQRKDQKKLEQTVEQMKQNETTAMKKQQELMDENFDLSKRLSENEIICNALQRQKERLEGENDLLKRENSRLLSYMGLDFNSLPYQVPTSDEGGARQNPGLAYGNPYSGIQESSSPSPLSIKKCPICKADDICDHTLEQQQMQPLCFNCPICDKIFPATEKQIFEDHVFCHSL
B2: Signal transducing adapter molecule 1 (Homo sapiens), Q92783 (parent)
chain: MPLFATNPFDQDVEKATSEMNTAEDWGLILDICDKVGQSRTGPKDCLRSIMRRVNHKDPHVAMQALTLLGACVSNCGKIFHLEVCSRDFASEVSNVLNKGHPKVCEKLKALMVEWTDEFKNDPQLSLISAMIKNLKEQGVTFPAIGSQAAEQAKASPALVAKDPGTVANKKEEEDLAKAIELSLKEQRQQSTTLSTLYPSTSSLLTNHQHEGRKVRAIYDFEAAEDNELTFKAGEIITVLDDSDPNWWKGETHQGIGLFPSNFVTADLTAEPEMIKTEKKTVQFSDDVQVETIEPEPEPAFIDEDKMDQLLQMLQSTDPSDDQPDLPELLHLEAMCHQMGPLIDEKLEDIDRKHSELSELNVKVMEALSLYTKLMNEDPMYSMYAKLQNQPYYMQSSGVSGSQVYAGPPPSGAYLVAGNAQMSHLQSYSLPPEQLSSLSQAVVPPSANPALPSQQTQAAYPNTMVSSVQGNTYPSQAPVYSPPPAATAAAATADVTLYQNAGPNMPQVPNYNLTSSTLPQPGGSQQPPQPQQPYSQKALL
B3: Zyxin (Homo sapiens), Q15942 (parent)
chain: MAAPRPSPAISVSVSAPAFYAPQKKFGPVVAPKPKVNPFRPGDSEPPPAPGAQRAQMGRVGEIPPPPPEDFPLPPPPLAGDGDDAEGALGGAFPPPPPPIEESFPPAPLEEEIFPSPPPPPEEEGGPEAPIPPPPQPREKVSSIDLEIDSLSSLLDDMTKNDPFKARVSSGYVPPPVATPFSSKSSTKPAAGGTAPLPPWKSPSSSQPLPQVPAPAQSQTQFHVQPQPQPKPQVQLHVQSQTQPVSLANTQPRGPPASSPAPAPKFSPVTPKFTPVASKFSPGAPGGSGSQPNQKLGHPEALSAGTGSPQPPSFTYAQQREKPRVQEKQHPVPPPAQNQNQVRSPGAPGPLTLKEVEELEQLTQQLMQDMEHPQRQNVAVNELCGRCHQPLARAQPAVRALGQLFHIACFTCHQCAQQLQGQQFYSLEGAPYCEGCYTDTLEKCNTCGEPITDRMLRATGKAYHPHCFTCVVCARPLEGTSFIVDQANRPHCVPDYHKQYAPRCSVCSEPIMPEPGRDETVRVVALDKNFHMKCYKCEDCGKPLSIEADDNGCFPLDGHVLCRKCHTARAQT
partner: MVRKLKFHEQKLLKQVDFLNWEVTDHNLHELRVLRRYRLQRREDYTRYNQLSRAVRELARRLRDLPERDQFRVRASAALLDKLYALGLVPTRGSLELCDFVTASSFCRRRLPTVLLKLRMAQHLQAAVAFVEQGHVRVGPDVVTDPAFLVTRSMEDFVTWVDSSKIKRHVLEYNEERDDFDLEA
B4: Liprin-alpha-1 (Homo sapiens), Q13136 (parent)
chain: MMCEVMPTISEAEGPPGGGGGHGSGSPSQPDADSHFEQLMVSMLEERDRLLDTLRETQETLALTQGKLHEVGHERDSLQRQLNTALPQEFAALTKELNVCREQLLEREEEIAELKAERNNTRLLLEHLECLVSRHERSLRMTVVKRQAQSPAGVSSEVEVLKALKSLFEHHKALDEKVRERLRVALERCSLLEEELGATHKELMILKEQNNQKKTLTDGVLDINHEQENTPSTSGKRSSDGSLSHEEDLAKVIELQEIISKQSREQSQMKERLASLSSHVTELEEDLDTARKDLIKSEEMNTKLQRDVREAMAQKEDMEERITTLEKRYLAAQREATSVHDLNDKLENEIANKDSMHRQTEDKNRQLQERLELAEQKLQQTLRKAETLPEVEAELAQRVAALSKAEERHGNIEERLRQMEAQLEEKNQELQRARQREKMNEEHNKRLSDTVDKLLSESNERLQLHLKERMAALEDKNSLLREVESAKKQLEETQHDKDQLVLNIEALRAELDHMRLRGASLHHGRPHLGSVPDFRFPMADGHTDSYSTSAVLRRPQKGRLAALRDEPSKVQTLNEQDWERAQQASVLANVAQAFESDADVSDGEDDRDTLLSSVDLLSPSGQADAHTLAMMLQEQLDAINKEIRLIQEEKENTEQRAEEIESRVGSGSLDNLGRFRSMSSIPPYPASSLASSSPPGSGRSTPRRIPHSPAREVDRLGVMTLLPPSREEVRDDKTTIKCETSPPSSPRALRLDRLHKGALHTVSHEDIRDIRNSTGSQDGPVSNPSSSNSSQDSLHKAPKKKGIKSSIGRLFGKKEKGRPGQTGKEALGQAGVSETDNSSQDALGLSKLGGQAEKNRKLQKKHELLEEARRQGLPFAQWDGPTVVVWLELWVGMPAWYVAACRANVKSGAIMSALSDTEIQREIGISNPLHRLKLRLAIQEIMSLTSPSAPPTSRTTLAYGDMNHEWIGNEWLPSLGLPQYRSYFMECLVDARMLDHLTKKDLRGQLKMVDSFHRNSFQCGIMCLRRLNYDRKELERKREESQSEIKDVLVWSNDRVIRWILSIGLKEYANNLIESGVHGALLALDETFDFSALALLLQIPTQNTQARAVLEREFNNLLVMGTDRRFDEDDDKSFRRAPSWRKKFRPKDIRGLAAGSAETLPANFRVTSSMSSPSMQPKKMQMDGNVSGTQRLDSATVRTYSC

Consider four variants from IntAct's records for PubMed 29892012.

The variants in the first assay derive from B1. The following applies: with caco2_human CALCOCO2, Q13137.
With R212H, the “effect of a mutation on the interaction” value is reported as “disrupting interaction strength”.

The variants in the next assay derive from B2. The following applies: with hgs_human HGS.
As to H331L, the “effect of a mutation on the interaction” value is recorded as “with no effect”.

Variants of B3 are the subject of the next assay. Conditions: with imp3_human IMP3, Q9NV31.
R167G: the “effect of a mutation on the interaction” value is recorded as “with no effect”.

The variants in another assay derive from B4. The following applies: with 2a5d_human PPP2R5D.
For L330F, the “effect of a mutation on the interaction” value is recorded as “disrupting interaction strength”.

The variants in the next assay derive from B4. The following applies: with ccnh_human CCNH.
On to L330F, for which the “effect of a mutation on the interaction” value is “disrupting interaction strength”.
